Results taken from patent US9023351.
Where a chain is given by its changes, count along the chain named. One block for each binder: values may come before it.

Molecular target: human mesothelin (human, UniProt Q13421)
Assay: FACS, OVCAR-3 cells

Sequence of human mesothelin (Q13421 other isoform, or with tags, fused parts or gaps): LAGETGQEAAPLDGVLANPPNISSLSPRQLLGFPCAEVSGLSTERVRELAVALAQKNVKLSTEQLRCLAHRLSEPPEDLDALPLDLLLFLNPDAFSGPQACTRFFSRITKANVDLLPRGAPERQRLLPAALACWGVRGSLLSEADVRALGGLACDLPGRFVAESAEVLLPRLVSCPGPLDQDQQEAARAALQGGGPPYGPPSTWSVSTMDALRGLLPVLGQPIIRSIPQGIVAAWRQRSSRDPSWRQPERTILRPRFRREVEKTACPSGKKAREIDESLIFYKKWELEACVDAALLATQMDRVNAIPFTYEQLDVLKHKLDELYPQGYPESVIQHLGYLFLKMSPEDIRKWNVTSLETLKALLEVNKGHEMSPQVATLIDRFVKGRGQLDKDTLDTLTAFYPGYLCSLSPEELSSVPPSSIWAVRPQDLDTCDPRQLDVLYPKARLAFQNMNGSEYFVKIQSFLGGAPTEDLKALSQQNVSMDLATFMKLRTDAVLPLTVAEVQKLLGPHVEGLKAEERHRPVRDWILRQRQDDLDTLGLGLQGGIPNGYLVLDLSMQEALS

B2: MOR06638 IgG (antibody, V domains shown)
VH: QVQLVQSGAEVKKPGASVKVSCKASGYTFTGNYINWVRQAPGQGLEWMGIINPHGGDTKYAQKFQGRVTMTRDTSISTAYMELSSLRSEDTAVYYCARWHHGTWIFDYWGQGTLVTVSS
VL: DIVLTQPPSVSGAPGQRVTISCSGSSSNIGSNYVSWYQQLPGTAPKLLIYNDNQRPSGVPDRFSGSKSGTSASLAITGLQSEDEADYYCSSWDRADGSYVFGGGTKLTVL
EC50: 4.19 nM

B3: MOR06631 IgG (antibody, V domains shown)
VH: QVQLVQSGAEVKKPGESLKISCKGSGYSFTNYWIGWVRQMPGKGLEWMGFIWPVDSWTQYSPSFQGQVTISADKSISTAYLQWSSLKASDTAMYYCARYGHGMYGGALDVWGQGTLVTVSS
VL: DIVLTQSPATLSLSPGERATLSCRASQSVRSSRLAWYQQKPGQAPRLLIYGASKRATGVPARFSGSGSGTDFTLTISSLEPEDFATYYCQQYYDFPPTFGQGTKVEIK
EC50: 0.96 nM

B6: MOR06642 IgG (antibody, V domains shown)
VH: B3 VH with F50V, W52M, V54S, W57Y, Q59R
VL: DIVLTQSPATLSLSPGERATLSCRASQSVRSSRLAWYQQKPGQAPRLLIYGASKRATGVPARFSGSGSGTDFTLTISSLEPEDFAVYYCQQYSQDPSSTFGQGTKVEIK
EC50: 0.54 nM

Now from value to binder:

EC50: 1.86 nM
B1: MOR06643 IgG (antibody, V domains shown)
VH: QVQLVESGGGLVQPGGSLRLSCAASGFTFSDYAMSWVRQAPGKGLEWVSAIMYDSSSTFYADSVKGRFTISRDNSKNTLYLQMNSLRAEDTAVYYCARINYIYKGVHFDYWGQGTLVTVSS
VL: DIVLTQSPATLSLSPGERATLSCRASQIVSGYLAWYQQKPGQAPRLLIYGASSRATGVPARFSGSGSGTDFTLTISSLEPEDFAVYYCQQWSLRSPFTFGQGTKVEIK

EC50: 1.35 nM
B4: MOR07111 IgG (antibody, V domains shown)
VH: B3 VH with F50V, W52M, V54S, W57Y, Q59R
VL: B3 VL with T86V, Y92F, D94S, F95K, P97I

EC50: 1.06 nM
B5: MOR07265 IgG (antibody, V domains shown)
VH: B3 VH
VL: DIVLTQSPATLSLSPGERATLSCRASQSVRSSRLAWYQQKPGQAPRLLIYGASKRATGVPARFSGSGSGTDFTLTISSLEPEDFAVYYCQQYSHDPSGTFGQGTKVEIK

EC50: 1.4 nM
B7: MOR06669 IgG (antibody, V domains shown)
VH: B3 VH with F50I, V54I, W57F
VL: B3 VL
